According to paper PMC5882232:

Target: TRPA1b-FLAG (mouse TRPA1b, splice variant of TRPA1 lacking exon 20, tagged with FLAG) (mouse)
Assay: native gel or EMSA

Substance “TRPA1b-FLAG (mouse TRPA1b, splice variant of TRPA1 lacking exon 20, tagged with FLAG) (natural protein)” has a stoichiometry N of 4.
